According to patent publication US20220106391A1:

How the values were obtained:
[1] = target: canine beta-NGF (cNGF) (canine); assay: SPR (Biacore), cNGF binding
NGF (species not stated) = assay: cell-based or functional assay
rat NGF (rat) = rat NGF (rat) (UniProt P25427); assay: cell-based or functional assay
[2] = target: canine beta-NGF (cNGF) (canine); assay: SPR (Biacore), cNGF binding; KD column of Table 7

rat NGF (rat), sequence (P25427 122-241 limits assumed): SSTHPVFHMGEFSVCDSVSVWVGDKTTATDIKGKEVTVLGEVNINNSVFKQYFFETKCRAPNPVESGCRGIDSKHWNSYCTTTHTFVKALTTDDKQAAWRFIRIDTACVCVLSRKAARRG
canine beta-NGF (cNGF) (canine), sequence (Q29074 110-229 N171T limits assumed): as the sequence (P25427 122-241 limits assumed) above, with T3S, M9R, T37M, A60D, N62T, E65D, T92M, D94G, A117G, G120A counted along it

Kd [1]: 4.34 pM
koff [1]: 1.54e-08 s⁻¹
kon [1]: 3560 M⁻¹ s⁻¹
IC50 nM (TF-1 proliferation inhibition, NGF 2.0 ng/ml) (NGF (species not stated)): 0.087 nM
IC50 µg/ml (TF-1 proliferation inhibition, NGF 2.0 ng/ml) (NGF (species not stated)): 0.0131 µg/mL
IC50 nM (inhibition of neurite outgrowth, PC12 cells, rat NGF 10 ng/ml; Repeat 1) (rat NGF (rat)): 0.26 nM
IC50 nM (inhibition of neurite outgrowth, PC12 cells, rat NGF 10 ng/ml; Repeat 2) (rat NGF (rat)): 0.24 nM
IC50 µg/ml (inhibition of neurite outgrowth, PC12 cells, rat NGF 10 ng/ml; Repeat 1) (rat NGF (rat)): 0.039 µg/mL
IC50 µg/ml (inhibition of neurite outgrowth, PC12 cells, rat NGF 10 ng/ml; Repeat 2) (rat NGF (rat)): 0.035 µg/mL
Kd [2]: 4.34 pM
B1: ZTS-182m6 (antibody, V domains shown)
VH: EVQLVESGGDLARPGGSLKLSCVVSGFTLTQYGINWVRQAPGKGLQWVTVIWATGATDYNSALKSRFTVSRDNAMNTVYLQMNSLRVEDTAVYYCARDGWWYATSWYFDVWGQGTLVTVSS
VL: DIVMTQTPLSLSVSPGEPASISCKASQDINHYLNWFRQKPDGTVKLLIYYTTRLQAGVPSRFSGSGSGTDFTLRISRVEADDAGVYYCQQGDHFPRTFGQGT
